Source: IntAct's records for PubMed 20485264

Experiments:
xpo1_yeast CRM1 = xpo1_yeast CRM1 (UniProt P30822)
ipka_human PKIA [1] = molecular target: ipka_human PKIA (UniProt P61925)
ipka_human PKIA [2] = molecular target: ipka_human PKIA (UniProt P61925); remark: listed apart in the source
ipka_human PKIA [3] = molecular target: ipka_human PKIA (UniProt P61925); remark: listed apart in the source
ipka_human PKIA [4] = molecular target: ipka_human PKIA (UniProt P61925); remark: listed apart in the source

## cAMP-dependent protein kinase inhibitor alpha (Homo sapiens) (from UniProt P61925) I47A
xpo1_yeast CRM1
  effect of a mutation on the interaction: disrupting interaction

## Exportin-1 (Saccharomyces cerevisiae) (from UniProt P30822) V441D
ipka_human PKIA [1]
  effect of a mutation on the interaction: increasing interaction

## Exportin-1 (Saccharomyces cerevisiae) (from UniProt P30822) V441A;L442A
ipka_human PKIA [2]
  effect of a mutation on the interaction: increasing interaction

## Exportin-1 (Saccharomyces cerevisiae) (from UniProt P30822) V443D
ipka_human PKIA [3]
  effect of a mutation on the interaction: increasing interaction

## Exportin-1 (Saccharomyces cerevisiae) (from UniProt P30822) P754D
ipka_human PKIA [4]
  effect of a mutation on the interaction: increasing interaction
